# This sample holds only a part of the variants without activity.
# B1: TPR 5TU (parent)
# chain: GGAUCUUCUCGAUCUAACAAAAAAGACAAAUCUGCCACAAAGCUUGAGAGCAUCUUCGGAUGCAGAGGCGGCAGCCUUCGGUGGCGCGAUAGCGCCAACGUUCUCAACUAUGACACGCAAAACGCGUGCUCCGUUGAAUGGAGUUUAUCAUG
# Variants of: B1
# Assay: polymerase ribozyme fitness, log enrichment relative to wild type (log ratio); higher = more active; in vitro selection for triplet polymerase activity
# How it was run: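 Mutant libraries of both subunits of a heterodimeric triplet polymerase ribozyme were PCR-built, transcribed, and selected once in triplicate, with frozen incubation at −7 °C and capture of gel-excised extended constructs on streptavidin beads before RT-PCR. Illumina sequencing of input and output libraries was filtered to genotypes with ≥10 input reads and ≥1 read per output. Fitness is the logarithm of genotype enrichment over wild-type enrichment, using inverse-variance-weighted replicate averages. The logarithm is base 2.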
row,Variant,polymerase ribozyme fitness (log ratio)
1,A40G C93U A106G C118U,-3.47
2,A41G A49U G59U C85A C105U A106G A121U U134C,≤ -4.2
3,A40U C54U G71U C95A U146C G152A,≤ -4.2
4,A40U A137U G140C,-4.19
5,A40U G50U G80A G126A C132G,≤ -4.2
6,A40G C125G,-2.5
7,A41C U77C G80A U102C U144G,≤ -4.2
8,A41C A49U U53A A60C G88U A122U U134A,≤ -4.2
9,A41C U56A C87U,-1.41
10,A40U C57G C105A,-0.98
11,A41C A49G U82A A91G,≤ -4.2
12,A41G G48A C87A U148C,≤ -4.2
13,A40U A91U U102A U104C U139A,≤ -4.2
14,A40U G50C G67C C103A C129G U144G,≤ -4.2
15,A41G C51U A89C C95A U135C U148A,≤ -4.2
16,A40U C63U G70C,-2.97
17,A40U C125U G128C,≤ -4.2
18,A41C C87U A120C,-1.53
19,A41U C54G G65C G84U G141A C149A,≤ -4.2
20,A41U A73U,-1.65
21,A40U C87A,-3.87

row,Variant,polymerase ribozyme fitness (log ratio)
1,A40U C87U,-0.375
2,A41G G50C C125U A142G,-3.92
3,A40U A89C C114U,-2.95
4,A40G G48U G58U C76A,≤ -4.2
5,A40U A60C,-1.31
6,A41C U55A A97G,-0.161
7,A41C U55A G58C A98U,-0.108
8,A41C C95U A119G,-0.978
9,A41G A49C U82G U90G G133A,≤ -4.2
10,A41G G59A U61A,-0.462
11,A41C C57A C96U,-0.533
12,A41C G46A U90A A150G,≤ -4.2
13,A40U A106G C131U,1.54
14,A41C G136A,0.215
15,A41C G42C C43G G84U C95U C96G,≤ -4.2
16,A41G C57G C76U G94A A110G C116G U139G,-4.11
17,A41G G84U,-0.79
18,A40U G86A G141A,-1.06
19,A40U G68A,-4.03
20,A41C G50C G83U C95A C99U C105G A137C,≤ -4.2
21,A40U G50C A52G C85A U90C A97U,≤ -4.2

row,Variant,polymerase ribozyme fitness (log ratio)
1,A41G C54G G84A U148C,-3.53
2,A41C A60U A91G U134C,-4.11
3,A41G U53C U55A U82G U127G,-4.02
4,A41G U78C C116G,0.0342
5,A41C C93G U144C,-3.7
6,A41C C85U C99G C132G U139A,≤ -4.2
7,A41C C54U A110G,-2.74
8,A41C C85U A122U G126C,-0.655
9,A41C C57G,-1.09
10,A41G U53A C85A,-2.72
11,A41G G83C G143C,-3.18
12,A40U G62A C131G G136A,-3.43
13,A41C G68C,≤ -4.2
14,A40U A52G G58C C75U G141U,-2.07
15,A40U U55A C85A C116A,-0.563
16,A40G C149A,-3.98
17,A41C A60G G92A A106U,-3.98
18,A41C G58C U82G A106G A137G,-2.57
19,A41C C93U A97C U102G,≤ -4.2
20,A41G C93A G124U,-1.5
21,A41C G50C G84A,≤ -4.2

row,Variant,polymerase ribozyme fitness (log ratio)
1,A41C C63G G70C C85U A97C U144A,≤ -4.2
2,A40U G58C A113C G124A,-2.93
3,A40U U55A G59A C79U U82G G83A G128A U139G G143A,≤ -4.2
4,A41G A47U C51U A52C G88A G136U,≤ -4.2
5,A41C C85G A113C,-4.19
6,A40U A106G,0.3
7,A41C C54A U82G G94U,-3.5
8,A40U G68A C116A A137U,≤ -4.2
9,A40U A91C A120C C129A U151A,≤ -4.2
10,A41C A52G G58A,-1.39
11,A41C A137G C149U,-2.44
12,A40U G48C C85G C99A G143A,≤ -4.2
13,A41G G42U A66U G74A U151G,≤ -4.2
14,A40U C54A C87U A89C,-2.61
15,A41U A52C A98U,-2.65
16,A40U C69U G84C G143C,≤ -4.2
17,A41G C54G G117U G124C,-1.19
18,A41C U82C,-1.14
19,A40U U53A,-0.83
20,A40U U53C,0.103

# From the RNAGym collection of RNA variant scans (doi:10.1073/pnas.2313332121)
